Here are results for 1 substance from PMC9631961.

This assay deals with Vsg-GFP fusion protein (D. melanogaster Vsg, transiently expressed in U2OS cells) (Drosophila melanogaster). Nature of the assay: immunostaining of cells or tissue.

In turn, “TcdA1 (TcA subunit of the Photorhabdus luminescens Tc toxin pTc) (from UniProt Q9RN43 1-2516) (natural protein)” displayed a percent of TcdA1-bound cells that are GFP positive of 96%.
